In IntAct's records for PubMed 34591612:

target: brca1_human BRCA1 (UniProt P38398)
Sequence (P38398 whole entry, looked up): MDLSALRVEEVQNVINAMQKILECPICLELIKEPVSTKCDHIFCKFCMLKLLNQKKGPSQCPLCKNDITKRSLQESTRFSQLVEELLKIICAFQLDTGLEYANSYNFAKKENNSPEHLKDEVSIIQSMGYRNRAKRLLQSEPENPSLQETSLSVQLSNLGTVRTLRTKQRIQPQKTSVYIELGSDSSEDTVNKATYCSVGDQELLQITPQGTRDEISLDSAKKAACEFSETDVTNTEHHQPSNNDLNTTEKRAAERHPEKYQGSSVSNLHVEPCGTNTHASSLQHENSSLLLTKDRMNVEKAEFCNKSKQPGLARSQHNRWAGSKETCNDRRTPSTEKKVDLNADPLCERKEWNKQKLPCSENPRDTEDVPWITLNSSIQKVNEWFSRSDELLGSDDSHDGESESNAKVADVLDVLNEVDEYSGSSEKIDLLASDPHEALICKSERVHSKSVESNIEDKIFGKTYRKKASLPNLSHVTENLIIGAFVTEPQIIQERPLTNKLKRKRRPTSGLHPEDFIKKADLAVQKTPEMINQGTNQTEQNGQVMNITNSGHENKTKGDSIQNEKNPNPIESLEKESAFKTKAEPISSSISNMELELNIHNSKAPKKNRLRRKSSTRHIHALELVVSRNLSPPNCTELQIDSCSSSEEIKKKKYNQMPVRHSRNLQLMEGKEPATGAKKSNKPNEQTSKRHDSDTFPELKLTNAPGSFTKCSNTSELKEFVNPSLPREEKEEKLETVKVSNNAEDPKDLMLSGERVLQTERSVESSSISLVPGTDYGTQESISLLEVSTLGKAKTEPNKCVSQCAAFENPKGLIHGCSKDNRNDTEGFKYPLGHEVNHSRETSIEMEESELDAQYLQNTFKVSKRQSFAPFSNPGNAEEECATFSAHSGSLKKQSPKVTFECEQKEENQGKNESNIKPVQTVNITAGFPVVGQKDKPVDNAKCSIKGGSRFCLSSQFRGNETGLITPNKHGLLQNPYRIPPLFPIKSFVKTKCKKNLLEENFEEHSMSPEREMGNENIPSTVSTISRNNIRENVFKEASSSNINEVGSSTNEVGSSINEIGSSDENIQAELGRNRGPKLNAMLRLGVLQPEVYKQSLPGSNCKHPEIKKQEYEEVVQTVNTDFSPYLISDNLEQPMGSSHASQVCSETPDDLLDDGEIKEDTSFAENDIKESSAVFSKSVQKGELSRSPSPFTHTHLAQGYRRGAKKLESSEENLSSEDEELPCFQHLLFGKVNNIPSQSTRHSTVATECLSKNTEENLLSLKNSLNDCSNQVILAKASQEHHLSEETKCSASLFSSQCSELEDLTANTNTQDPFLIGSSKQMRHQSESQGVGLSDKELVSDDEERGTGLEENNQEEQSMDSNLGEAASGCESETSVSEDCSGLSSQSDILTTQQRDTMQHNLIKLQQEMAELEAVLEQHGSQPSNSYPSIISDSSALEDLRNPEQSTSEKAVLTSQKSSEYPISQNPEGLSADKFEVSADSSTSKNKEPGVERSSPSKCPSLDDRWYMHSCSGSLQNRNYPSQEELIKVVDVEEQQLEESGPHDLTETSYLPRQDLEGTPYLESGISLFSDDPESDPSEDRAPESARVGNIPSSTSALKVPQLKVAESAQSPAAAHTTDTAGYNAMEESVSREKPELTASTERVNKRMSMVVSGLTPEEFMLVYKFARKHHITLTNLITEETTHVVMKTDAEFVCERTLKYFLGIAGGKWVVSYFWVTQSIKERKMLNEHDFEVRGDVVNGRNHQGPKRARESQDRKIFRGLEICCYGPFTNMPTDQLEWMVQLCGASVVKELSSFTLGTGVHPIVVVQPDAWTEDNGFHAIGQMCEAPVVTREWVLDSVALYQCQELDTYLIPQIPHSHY

Neurabin-2 (Homo sapiens), Q96SB3 F451A, sequence (Q96SB3 whole entry F451A): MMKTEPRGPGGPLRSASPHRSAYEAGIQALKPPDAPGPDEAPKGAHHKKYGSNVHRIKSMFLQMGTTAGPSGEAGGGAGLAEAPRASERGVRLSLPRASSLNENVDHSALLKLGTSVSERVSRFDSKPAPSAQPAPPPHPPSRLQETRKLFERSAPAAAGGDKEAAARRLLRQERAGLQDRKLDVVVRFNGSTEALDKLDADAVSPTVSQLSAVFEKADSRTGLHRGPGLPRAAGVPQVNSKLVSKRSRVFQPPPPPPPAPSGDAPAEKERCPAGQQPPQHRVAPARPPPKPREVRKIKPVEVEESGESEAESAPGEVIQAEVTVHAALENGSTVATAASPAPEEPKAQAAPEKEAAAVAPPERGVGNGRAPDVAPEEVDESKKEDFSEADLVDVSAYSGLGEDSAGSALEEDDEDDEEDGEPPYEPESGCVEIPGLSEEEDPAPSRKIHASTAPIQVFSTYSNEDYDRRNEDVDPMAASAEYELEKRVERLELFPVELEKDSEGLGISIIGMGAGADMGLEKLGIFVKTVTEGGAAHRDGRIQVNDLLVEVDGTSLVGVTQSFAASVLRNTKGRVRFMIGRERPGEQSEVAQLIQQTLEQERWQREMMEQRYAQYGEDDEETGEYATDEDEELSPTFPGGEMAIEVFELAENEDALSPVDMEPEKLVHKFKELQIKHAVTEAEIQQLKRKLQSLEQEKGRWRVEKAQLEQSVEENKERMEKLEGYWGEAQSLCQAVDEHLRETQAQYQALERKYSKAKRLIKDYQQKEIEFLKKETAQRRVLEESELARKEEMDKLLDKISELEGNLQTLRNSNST

| Substance | effect of a mutation on the interaction |
| --- | --- |
| Neurabin-2 (Homo sapiens), Q96SB3 S248A | increasing interaction |
| Neurabin-2 (Homo sapiens), Q96SB3 F451A | increasing interaction |
| Neurabin-2 (Homo sapiens), Q96SB3 S212A | decreasing interaction |
| Neurabin-2 (Homo sapiens), Q96SB3 S635A | disrupting interaction |
